Results from patent publication US20240182563A1 (GENOME, published 2024).

Experiments:
human CNTN4-rabbit Fc = target: T1, human CNTN4-rabbit Fc (human; rabbit, UniProt Q8IWV2 19-1000, limits assumed); test: ELISA, plate coated with antigen-rabbit Fc, anti-human IgG Fc-HRP
T1 construct: not shown: rabbit Fc
T1 sequence (looked up): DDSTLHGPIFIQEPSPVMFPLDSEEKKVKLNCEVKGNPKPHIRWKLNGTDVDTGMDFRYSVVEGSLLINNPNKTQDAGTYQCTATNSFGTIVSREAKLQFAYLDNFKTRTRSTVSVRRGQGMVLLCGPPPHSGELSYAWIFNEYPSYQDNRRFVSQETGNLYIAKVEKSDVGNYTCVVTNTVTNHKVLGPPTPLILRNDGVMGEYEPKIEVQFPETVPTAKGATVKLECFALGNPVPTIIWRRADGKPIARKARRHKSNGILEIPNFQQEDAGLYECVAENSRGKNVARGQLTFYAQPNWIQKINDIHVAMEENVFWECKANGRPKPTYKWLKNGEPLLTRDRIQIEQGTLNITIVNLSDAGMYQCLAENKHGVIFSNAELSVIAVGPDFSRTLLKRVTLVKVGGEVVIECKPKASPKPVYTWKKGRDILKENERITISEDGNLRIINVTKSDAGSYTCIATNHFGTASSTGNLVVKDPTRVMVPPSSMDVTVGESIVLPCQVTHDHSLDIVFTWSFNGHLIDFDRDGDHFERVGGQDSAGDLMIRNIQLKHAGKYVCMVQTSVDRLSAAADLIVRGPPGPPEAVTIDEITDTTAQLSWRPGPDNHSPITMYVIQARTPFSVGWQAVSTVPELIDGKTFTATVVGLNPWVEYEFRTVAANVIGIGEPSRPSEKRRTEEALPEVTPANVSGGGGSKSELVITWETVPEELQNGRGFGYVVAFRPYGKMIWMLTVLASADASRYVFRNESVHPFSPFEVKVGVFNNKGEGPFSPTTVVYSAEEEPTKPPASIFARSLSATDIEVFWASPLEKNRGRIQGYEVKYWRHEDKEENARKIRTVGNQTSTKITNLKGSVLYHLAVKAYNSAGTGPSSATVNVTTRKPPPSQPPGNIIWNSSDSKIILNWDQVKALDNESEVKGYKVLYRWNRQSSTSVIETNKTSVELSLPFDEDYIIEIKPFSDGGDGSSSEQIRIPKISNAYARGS
Protocol: (§1) An ELISA tests were performed on a total of 25 scFv-hCks and a total of 27 IgGs for which the expression was confirmed in Example 1.2. An ELISA plate was coated with 200 ng of antigens (human CNTN4-rabbit Fc or mouse CNTN4-rabbit Fc). 200 ng of a negative control (human antigen-rabbit Fc) for a tagging protein was used. For antibody binding, anti-CNTN4 scFv-hCk was serially diluted from a maximum of 1 μM to 0.001 nM by 1/10×each, and anti-CNTN4 IgG was serially diluted from a maximum of 10 nM to 0.00001 nM by 1/10×each, thereby binding to the antigen. Anti-human kappa-HRP or anti-human IgG Fc-HRP was used as the secondary antibody for antibody detection. Color was developed using ABTS, which is a color developing reagent, and the absorbance at 405 nm was measured.

mouse CNTN4-rabbit Fc = target: T2, mouse CNTN4-rabbit Fc (mouse; rabbit, UniProt Q69Z26 19-1000, limits assumed); test: as above
T2 construct: not shown: rabbit Fc
T2 sequence (looked up): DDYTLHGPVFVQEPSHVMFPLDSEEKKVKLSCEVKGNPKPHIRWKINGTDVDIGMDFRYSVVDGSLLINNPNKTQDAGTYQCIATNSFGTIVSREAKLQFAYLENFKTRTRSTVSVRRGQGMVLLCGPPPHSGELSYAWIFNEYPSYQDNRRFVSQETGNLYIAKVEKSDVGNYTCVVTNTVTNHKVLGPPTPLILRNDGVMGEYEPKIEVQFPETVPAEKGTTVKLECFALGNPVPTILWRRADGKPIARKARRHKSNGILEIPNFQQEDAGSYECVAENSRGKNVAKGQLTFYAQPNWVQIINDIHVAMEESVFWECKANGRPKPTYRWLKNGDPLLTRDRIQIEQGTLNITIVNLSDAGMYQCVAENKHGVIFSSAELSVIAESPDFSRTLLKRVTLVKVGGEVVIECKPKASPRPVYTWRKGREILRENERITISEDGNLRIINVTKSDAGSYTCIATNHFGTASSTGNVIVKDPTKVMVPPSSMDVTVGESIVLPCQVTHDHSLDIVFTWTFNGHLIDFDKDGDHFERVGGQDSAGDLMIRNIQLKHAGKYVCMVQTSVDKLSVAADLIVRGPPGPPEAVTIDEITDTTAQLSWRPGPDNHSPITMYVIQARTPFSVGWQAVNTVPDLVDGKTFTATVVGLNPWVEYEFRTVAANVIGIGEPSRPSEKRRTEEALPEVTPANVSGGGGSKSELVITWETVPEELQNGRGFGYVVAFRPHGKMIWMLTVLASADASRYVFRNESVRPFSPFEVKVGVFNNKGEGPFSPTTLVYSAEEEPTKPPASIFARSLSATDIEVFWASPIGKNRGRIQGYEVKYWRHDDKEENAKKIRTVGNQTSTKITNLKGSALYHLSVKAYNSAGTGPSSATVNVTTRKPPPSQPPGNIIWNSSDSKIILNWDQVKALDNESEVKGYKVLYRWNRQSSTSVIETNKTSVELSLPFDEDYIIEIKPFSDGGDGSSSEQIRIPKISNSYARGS
Protocol: as §1

[1] = target: T3, human CNTN4 antigen expressed on the cell membrane of 293FT cells (human, UniProt Q8IWV2 19-1000); test: FACS, 293FT cells transfected with human CNTN4, 40 ug/mL, anti-hFc-PE
T3 construct: whole, on cells; also called Human CNTN4 transfected cell
T3 sequence (looked up): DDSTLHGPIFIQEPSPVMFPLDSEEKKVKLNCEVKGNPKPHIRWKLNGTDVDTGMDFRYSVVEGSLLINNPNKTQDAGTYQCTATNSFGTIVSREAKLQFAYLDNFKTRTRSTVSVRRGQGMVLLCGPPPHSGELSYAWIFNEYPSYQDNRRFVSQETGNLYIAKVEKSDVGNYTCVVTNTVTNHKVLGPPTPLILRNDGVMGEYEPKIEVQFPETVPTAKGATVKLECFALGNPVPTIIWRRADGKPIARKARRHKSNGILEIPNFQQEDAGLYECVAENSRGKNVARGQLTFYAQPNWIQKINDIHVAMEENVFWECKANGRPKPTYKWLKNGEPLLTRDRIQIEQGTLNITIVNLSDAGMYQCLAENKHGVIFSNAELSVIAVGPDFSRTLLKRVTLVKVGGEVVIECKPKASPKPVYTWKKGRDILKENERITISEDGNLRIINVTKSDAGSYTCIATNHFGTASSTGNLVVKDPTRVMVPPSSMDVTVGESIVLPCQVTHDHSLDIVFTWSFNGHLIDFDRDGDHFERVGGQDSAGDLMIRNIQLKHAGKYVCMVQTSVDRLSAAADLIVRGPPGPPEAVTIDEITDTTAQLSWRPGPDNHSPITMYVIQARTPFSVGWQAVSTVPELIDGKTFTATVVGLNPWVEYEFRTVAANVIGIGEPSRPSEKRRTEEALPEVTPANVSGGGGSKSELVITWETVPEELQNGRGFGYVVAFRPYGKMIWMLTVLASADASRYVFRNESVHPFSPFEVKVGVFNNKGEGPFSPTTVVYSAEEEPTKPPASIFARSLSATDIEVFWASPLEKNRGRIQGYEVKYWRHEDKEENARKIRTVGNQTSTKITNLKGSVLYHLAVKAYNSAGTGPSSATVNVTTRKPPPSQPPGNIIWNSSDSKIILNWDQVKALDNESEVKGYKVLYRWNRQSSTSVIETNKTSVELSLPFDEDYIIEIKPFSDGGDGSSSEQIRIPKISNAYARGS

EC50 (human CNTN4-rabbit Fc)	EC50 (mouse CNTN4-rabbit Fc)	Shift % [1]	Binder
0.01 nM	0.01 nM	86.6%	anti-CNTN4 IgG A13WB2 (antibody, V domains shown, human IgG4 (S228P)) VH: AVTLDESGGGLHTPGGALSLVCKASGFTFSSYGMAWVRQAPGKGLEWVAGITSSGSSAGYGPAVKGRATISRDNGQSTVRLQLNNLRAEDTATYYCAKDGYIYSGADSDSIDAWGHGTEVIVSS VL: ALTQPSSVSANLGGTVEITCSGGYSGYGWYQQKSPGSAPVTLIYYNDKRPSDIPSRFSGSKSGSTGTLTITGVQAEDEAVYFCGSRDSSTYVDIFGAGTTLTVL
0.01 nM	0.01 nM	84.7%	anti-CNTN4 IgG A13WB4 (antibody, V domains shown, human IgG4 (S228P)) VH: AVTLDESGGGLHTPGGALSLVCKASGFTFSSYGMAWVRQAPGKGLEWVAGITSSGSSAGYGPAVKGRATISRDNGQSTVRLQLNNLRAEDTATYYCAKDGYIYSGADSDSIDAWGHGTEVIVSS VL: ALTQPSSVSANPGETVEITCSGGSSDYGYGWYQQKSPGSAPVTVIYYNNNRPSDIPSRFSGSLSGSTNTLTITGVQADDEAVYFCGSRDSSSGYVDIFGAGTTLTVL
0.01 nM	0.01 nM	86.4%	anti-CNTN4 IgG A13WB7 (antibody, V domains shown, human IgG4 (S228P)) VH: AVTLDESGGGLHTPGGALSLVCKASGFTFSSYGMAWVRQAPGKGLEWVAGITSSGSSAGYGPAVKGRATISRDNGQSTVRLQLNNLRAEDTATYYCAKDGYIYSGADSDSIDAWGHGTEVIVSS VL: ALTQPSSVSANPGETVKITCSGGGSSSYYNYGWYQQKSPGSAPVTVIYYNDKRPSDIPSRFSGSKSGSTGTLTITGVQAEDEAVYYCGSWDSSTYSDIFGAGTTLTVL
0.01 nM	0.01 nM	85.1%	anti-CNTN4 IgG A13WB24 (antibody, V domains shown, human IgG4 (S228P)) VH: AVTLDESGGGLHTPGGALSLVCKASGFTFSSYGMAWVRQAPGKGLEWVAGITSSGSSAGYGPAVKGRATISRDNGQSTVRLQLNNLRAEDTATYYCAKDGYIYSGADSDSIDAWGHGTEVIVSS VL: ALTQPSSVSANPGGTVEITCSGGGNNNYGWYQQKSPGSAPVTLIYYNDNRPSDIPSRFSGSKSGSTATLTITGVQAEDEAVYYCGGYDISYVDIFGAGTTLTVL
0.01 nM	0.02 nM	80.4%	anti-CNTN4 IgG A35SF8 (antibody, V domains shown, human IgG4 (S228P)) VH: AVTLDESGGGLHTPGGALSLVCKASGFTFSSYGMAWVRQAPGKGLEWVAGITSSGSSAGYGPAVKGRATISRDNGQSTVRLQLNNLRAEDTATYYCAKDGYIYSGADSDSIDAWGHGTEVIVSS VL: ALTQPSSVSANLGGTVKITCSGGGGSYGWFQQKSPGSAPVTLIYNNNNRPSDIPSRFSGSKSGSTATLTITGVQAEDEAVYFCGGYDDSTYVGMFGAGTTLTVL
0.01 nM	0.02 nM	83.8%	anti-CNTN4 IgG A13SF1 (antibody, V domains shown, human IgG4 (S228P)) VH: AVTLDESGGGLQTPGGGLSLVCKASGFTFSSYGMAWVRQAPGKGLEWVAGITSSGSSAGYGPAVKGRATISRDNGQSTVRLQLNNLRAEDTATYYCAKDGYIYSGADSDSIDAWGHGTEVIVSS VL: ALTQPSSVSANLGGTVKITCSGGGGSYGWFQQKSPGSAPVTLIYNNNNRPSDIPSRFSGSKSGSTATLTITGVQAEDEAVYFCGGYDSSTYVGTFGAGTTLTVL
0.01 nM	0.01 nM	84.8%	anti-CNTN4 IgG A13SF16 (antibody, V domains shown, human IgG4 (S228P)) VH: AVTLDESGGGLQTPGGGLSLVCKASGFTFSSYGMAWVRQAPGKGLEWVAGITSSGSSAGYGPAVKGRATISRDNGQSTVRLQLNNLRAEDTATYYCAKDGYIYSGADSDSIDAWGHGTEVIVSS VL: ALTQPSSVSANLGGTVKITCSGSGGSYGWFQQKSPGSAPVTLIYNNDNRPSDIPSRFSGSKSGSTATLTITGVQAEDEAVYFCGGYDSSTYVDTFGAGTTLTVL
0.01 nM	0.01 nM	80.4%	anti-CNTN4 IgG A13SF21 (antibody, V domains shown, human IgG4 (S228P)) VH: AVTLDESGGGLHTPGGALSLVCKASGFTFSSYGMAWVRQAPGKGLEWVAGITSSGSSAGYGPAVKGRATISRDNGQSTVRLQLNNLRAEDTATYYCAKDGYIYSGADSDSIDAWGHGTEVIVSS VL: ALTQPSSVSANLGGTVEITCSGSSGSYGWYQQKAPGSAPVTVIYNNNNRPSGIPSRFSGALSGSTATLTITGVQAEDEAVYFCGGYDSSTYVGIFGAGTTLTVL
0.01 nM	0.01 nM	82.4%	anti-CNTN4 IgG A13WB25 (antibody, V domains shown, human IgG4 (S228P)) VH: AVTLDESGGGLHTPGGALSLVCKASGFTFSSYGMAWVRQAPGKGLEWVAGITSSGSSAGYGPAVKGRATISRDNGQSTVRLQLNNLRAEDTATYYCAKDGYIYSGADSDSIDAWGHGTEVIVSS VL: ALTQPSSVSANLGGTVEITCSGGGGSYGWYQQKSPGSAPVTVIYYNDKRPSDIPSRFSGSKSGSTGTLTITGVQAEDEAVYFCGGYDGSTYAGIFGAGTTLTVL
0.01 nM	0.01 nM	81.6%	anti-CNTN4 IgG A35SF14 (antibody, V domains shown, human IgG4 (S228P)) VH: AVTLDESGGGLHTPGGALSLVCKASGFTFSSYGMAWVRQAPGKGLEWVAGITSSGSSAGYGPAVKGRATISRDNGQSTVRLQLNNLRAEDTATYYCAKDGYIYSGADSDSIDAWGHGTEVIVSS VL: ALTQPSSVSANPGETIKITCSGGGGSYGWYQQKSPGSAPVTVIYNGNNRPSDIPSRFSGSKSGSTATLTITGVQAEDEAVYFCGGYDSGTYSGIFGAGTTLTVL
0.01 nM	0.01 nM	77.9%	anti-CNTN4 IgG A35SF38 (antibody, V domains shown, human IgG4 (S228P)) VH: AVTLDESGGGLHTPGGALSLVCKASGFTFSSYGMAWVRQAPGKGLEWVAGITSSGSSAGYGPAVKGRATISRDNGQSTVRLQLNNLRAEDTATYYCAKDGYIYSGADSDSIDAWGHGTEVIVSS VL: ALTQPSSVSANLGGTVKLTCSGSSGSYGWYQQKSPGSAPVTLIYNNNNRPSDIPSRFSGSTSGSTGTLTITGVRAEDEAVYFCGGYDSSTYVAIFGAGTTLTVL
0.01 nM	0.01 nM	86.4%	anti-CNTN4 IgG A13WB73 (antibody, V domains shown, human IgG4 (S228P)) VH: AVTLDESGGGLHTPGGVLSLVCKASGFTFSSYGMAWVRQAPGKGLEWVAGITSSGSSAGYGPAVKGRATISRDNGQSTVRLQLNNLRAEDTATYYCAKDGYIYSGADSDSIDAWGHGTEVIVSS VL: ALTQPSSVSANLGGTVEITCSGGYSGYGWYQQMSPGSAPVTLTYYNDKRPSNIPSRFSGSKSGSTATLAITGVQAEDEAVYYCGSWDTSTNTPIFGAGTTLTVL
